Experiments:
cynomolgus suPAR = target: T1, cynomolgus suPAR (cynomolgus, UniProt Q9GK78 23-303, limits assumed); assay: BLI (Octet) off-rate screen of scFv clones
T1 construct: Target antigen of the off-rate screen; also called cynomolgus uPAR; cynoPLAUR-His

[1] = target: T2, human soluble urokinase plasminogen activator receptor (hsuPAR) (human, UniProt Q03405 23-303, limits assumed); assay: BLI (Octet) off-rate screen of scFv clones
T2 construct: Target antigen of the off-rate screen; also called human suPAR; rhuPAR-His
T2 sequence (Q03405 23-303 limits assumed): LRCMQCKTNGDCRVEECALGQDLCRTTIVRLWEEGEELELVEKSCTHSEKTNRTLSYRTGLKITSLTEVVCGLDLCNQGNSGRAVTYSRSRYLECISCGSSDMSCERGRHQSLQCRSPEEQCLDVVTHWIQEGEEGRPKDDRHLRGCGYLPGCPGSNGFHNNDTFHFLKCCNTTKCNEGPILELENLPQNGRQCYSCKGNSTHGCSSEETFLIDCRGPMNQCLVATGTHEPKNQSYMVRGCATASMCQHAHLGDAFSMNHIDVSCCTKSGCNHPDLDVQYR

T1 sequence (Q9GK78 23-303 limits assumed): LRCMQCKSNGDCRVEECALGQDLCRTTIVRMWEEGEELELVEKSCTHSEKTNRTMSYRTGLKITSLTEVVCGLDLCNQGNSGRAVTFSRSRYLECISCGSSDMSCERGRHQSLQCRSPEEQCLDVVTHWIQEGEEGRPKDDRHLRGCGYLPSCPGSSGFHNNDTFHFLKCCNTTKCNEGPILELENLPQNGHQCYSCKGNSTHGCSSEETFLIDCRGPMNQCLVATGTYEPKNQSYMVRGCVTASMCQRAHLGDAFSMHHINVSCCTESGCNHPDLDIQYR

| Binder | koff (cynomolgus suPAR) | koff [1] |
| --- | --- | --- |
| suPAR_DB03_A05 (scFv, V domains shown, screened as scFv) VH: QVQLVQSGAEVKKPGASVKVSCKASGYTFSSYYMHWVRQAPGQGLEWMGWIDHENGNTIYAQKFQGRVTMTRDTSTSTVYMELSSLRSEDTAVYYCARGYDVDWFVYWGQGTLVTVSS VL: DIQMTQSPSSLSASVGDRVTITCSARSSVSYMYWYQQKPGKAPKLLIYRTSSLASGVPSRFSGSGSGTDFTLTISSLQPEDFATYYCQQYHSYPPTFGGGTKVEIK | 0.000259 s⁻¹ | 0.0026 s⁻¹ |
| suPAR_DB03_A06 (scFv, V domains shown, screened as scFv) VH: QVQLVQSGAEVKKPGASVKVSCKASGFNITDYYIHWVRQAPGQGLEWMGWIDPENGSTIYAQKFQGRVTMTRDTSTSTVYMELSSLRSEDTAVYYCARGYDVDWFVYWGQGTLVTVSS VL: DIQMTQSPSSLSASVGDRVTITCSARQSISYMYWYQQKPGKAPKLLIYRTSNLASGVPSRFSGSGSGTDFTLTISSLQPEDFATYYCQQYHSYPPTFGGGTKVEIK | 6.32e-07 s⁻¹ | 0.00302 s⁻¹ |
| suPAR_DB03_A08 (scFv, V domains shown, screened as scFv) VH: QVQLVQSGAEVKKPGASVKVSCKASGYTFTGYYMHWVRQAPGQGLEWMGWIDHENGSTIYAQKFQGRVTMTRDTSTSTVYMELSSLRSEDTAVYYCARGYDVDWFVYWGQGTLVTVSS VL: DIQMTQSPSSLSASVGDRVTITCSASSSVSYMYWYQQKPGKAPKLLIYRTSNLASGVPSRFSGSGSGTDFTLTISSLQPEDFATYYCQQYHSYPPTFGGGTKVEIK | 0.000269 s⁻¹ | 0.000306 s⁻¹ |
| suPAR_DB03_A09 (scFv, V domains shown, screened as scFv) VH: QVQLVQSGAEVKKPGASVKVSCKASGYTFTSHYVHWVRQAPGQGLEWMGWIDHSNGSTIYDQKFQGRVTMTRDTSTSTVYMELSSLRSEDTAVYYCARGYDVDWFVYWGQGTLVTVSS VL: DIQMTQSPSSLSASVGDRVTITCSARQSISYMYWYQQKPGKAPKLLIYRTSNLASGVPSRFSGSGSGTDFTLTISSLQPEDFATYYCQQYHSYPPTFGGGTKVEIK | 0.000254 s⁻¹ | 0.00132 s⁻¹ |
| suPAR_DB03_A10 (scFv, V domains shown, screened as scFv) VH: QVQLVQSGAEVKKPGASVKVSCKASGYTFSNYYMHWVRQAPGQGLEWMGWIDHENGSTIYAQKFQGRVTMTRDTSTSTVYMELSSLRSEDTAVYYCARGYDVDWFVYWGQGTLVTVSS VL: DIQMTQSPSSLSASVGDRVTITCSARSSVSYMYWYQQKPGKAPKLLIYRTSNLASGVPSRFSGSGSGTDFTLTISSLQPEDFATYYCQQYHSYPPTFGGGTKVEIK | 0.000685 s⁻¹ | 0.000838 s⁻¹ |
| suPAR_DB03_A11 (scFv, V domains shown, screened as scFv) VH: QVQLVQSGAEVKKPGASVKVSCKASGYTFTSYYMHWVRQAPGQGLEWVGWMDPNSGGTSYAQKFQGRVTMTRDTSTSTVYMELSSLRSEDTAVYYCARGYDVDWFVYWGQGTLVTVSS VL: DIQMTQSPSSLSASVGDRVTITCSARSSVSYMYWYQQKPGKAPKLLIYRTSNLASGVPSRFSGSGSGTDFTLTISSLQPEDFATYYCQQYHSYPPTFGGGTKVEIK | 7.99e-05 s⁻¹ | 0.00181 s⁻¹ |
| suPAR_DB03_B01 (scFv, V domains shown, screened as scFv) VH: QVQLVQSGAEVKKPGASVKVSCKASGNTFTGHYMQWVRQAPGQGLEWMGWIDHENGNTSYAQKFQGRVTMTRDTSTSTVYMELSSLRSEDTAVYYCARGYDVDWFVYWGQGTLVTVSS VL: DIQMTQSPSSLSASVGDRVTITCSARSSVSYMYWYQQKPGKAPKLLIYRTSNLASGVPSRFSGSGSGTDFTLTISSLQPEDFATYYCQQYHSYPPTFGGGTKVEIK | 0.000343 s⁻¹ | 0.00297 s⁻¹ |
| suPAR_DB03_B02 (scFv, V domains shown, screened as scFv) VH: QVQLVQSGAEVKKPGASVKVSCKASGDTFTSYYMHWVRQAPGQGLEWMGWIDHENGSTSYDQKFQGRVTMTRDTSTSTVYMELSSLRSEDTAVYYCARGYDVDWFVYWGQGTLVTVSS VL: DIQMTQSPSSLSASVGDRVTITCSARSSVSYMYWYQQKPGKAPKLLIYRTSNLASGVPSRFSGSGSGTDFTLTISSLQPEDFATYYCQQYHSYPPTFGGGTKVEIK | 0.000148 s⁻¹ | 0.0024 s⁻¹ |
| suPAR_DB03_B04 (scFv, V domains shown, screened as scFv) VH: QVQLVQSGAEVKKPGASVKVSCKASGYTFTGYYMHWVRQAPGQGLEWIGWITPDSGGTVYAQKFQGRVTMTRDTSTSTVYMELSSLRSEDTAVYYCARGYDVDWFVYWGQGTLVTVSS VL: DIQMTQSPSSLSASVGDRVTITCSASSSISYMYWYQQKPGKAPKLLIYRTSNLASGVPSRFSGSGSGTDFTLTISSLQPEDFATYYCQQYHSYPPTFGGGTKVEIK | 4.52e-07 s⁻¹ | 0.00197 s⁻¹ |
| suPAR_DB03_B05 (scFv, V domains shown, screened as scFv) VH: QVQLVQSGAEVKKPGASVKVSCKASGYTFTSYYMHWVRQAPGQGLEWMGWIDPENGNTIYDQKFQGRVTMTRDTSTSTVYMELSSLRSEDTAVYYCARGYDIDWFVYWGQGTLVTVSS VL: DIQMTQSPSSLSASVGDRVTITCSARQSVSYMYWYQQKPGKAPKLLIYRTSNLASGVPSRFSGSGSGTDFTLTISSLQPEDFATYYCQQYHSYPPTFGGGTKVEIK | 0.000126 s⁻¹ | 0.00536 s⁻¹ |
| suPAR_DB03_B06 (scFv, V domains shown, screened as scFv) VH: QVQLVQSGAEVKKPGASVKVSCKASGYNITDYYIHWVRQAPGQGLEWMGWIDPENGSTIYDQKFQGRVTMTRDTSTSTVYMELSSLRSEDTAVYYCARGYDVDWFVYWGQGTLVTVSS VL: DIQMTQSPSSLSASVGDRVTITCSARSSVSYMYWYQQKPGKAPKLLIYRTSNLASGVPSRFSGSGSGTDFTLTISSLQPEDFATYYCQQYHSYPPTFGGGTKVEIK | 1.08e-05 s⁻¹ | 0.00352 s⁻¹ |
| suPAR_DB03_B08 (scFv, V domains shown, screened as scFv) VH: QVQLVQSGAEVKKPGASVKVSCKASGYAFTGYYMHWVRQAPGQGLEWMGWIDHENGNTIYDQKFQGRVTMTRDTSTSTVYMELSSLRSEDTAVYYCARGYDVDWFVYWGQGTLVTVSS VL: DIQMTQSPSSLSASVGDRVTITCRARQSVSYMYWYQQKPGKAPKLLIYRTSNLASGVPSRFSGSGSGTDFTLTISSLQPEDFATYYCQQYHSYPPTFGGGTKVEIK | 0.000226 s⁻¹ | 0.00133 s⁻¹ |
| suPAR_DB03_B09 (scFv, V domains shown, screened as scFv) VH: QVQLVQSGAEVKKPGASVKVSCKASGYNIKSYYIHWVRQAPGQGLEWMGWIDPEGGSTIYDQKFQGRVTMTRDTSTSTVYMELSSLRSEDTAVYYCARGYDVDWFVYWGQGTLVTVSS VL: DIQMTQSPSSLSASVGDRVTITCSARSSVSYMYWYQQKPGKAPKLLIYRTSNLASGVPSRFSGSGSGTDFTLTISSLQPEDFATYYCQQYHSYPPTFGGGTKVEIK | 0.000126 s⁻¹ | 0.00421 s⁻¹ |
| suPAR_DB03_B10 (scFv, V domains shown, screened as scFv) VH: QVQLVQSGAEVKKPGASVKVSCKASGYTFTGYYMHWVRQAPGQGLEWMGWIDHENGNTIYDQKFQGRVTMTRDTSTSTVYMELSSLRSEDTAVYYCARGTDVDWFVYWGQGTLVTVSS VL: DIQMTQSPSSLSASVGDRVTITCSASSSISYMYWYQQKPGKAPKLLIYRTSNLASGVPSRFSGSGSGTDFTLTISSLQPEDFATYYCQQYHSYPPTFGGGTKVEIK | 0.000138 s⁻¹ | 0.004 s⁻¹ |
| suPAR_DB03_C01 (scFv, V domains shown, screened as scFv) VH: QVQLVQSGAEVKKPGASVKVSCKASGSTSTDHYVHWVRQAPGQGLEWMGWIDHEGGSTIYAQKFQGRVTMTRDTSTSTVYMELSSLRSEDTAVYYCARGYDVDWFVYWGQGTLVTVSS VL: DIQMTQSPSSLSASVGDRVTITCSARSSVSYMYWYQQKPGKAPKLLIYRTSNLASGVPSRFSGSGSGTDFTLTISSLQPEDFATYYCQQYHSYPPTFGGGTKVEIK | 0.000165 s⁻¹ | 0.00366 s⁻¹ |
| suPAR_DB03_C02 (scFv, V domains shown, screened as scFv) VH: QVQLVQSGAEVKKPGASVKVSCKASGYSFTNYYIHWVRQAPGQGLEWMGWIDHENGNTIYDQKFQGRVTMTRDTSTSTVYMELSSLRSEDTAVYYCARGNDVDWFVYWGQGTLVTVSS VL: DIQMTQSPSSLSASVGDRVTITCSARSSVSYMYWYQQKPGKAPKLLIYRTSNLASGVPSRFSGSGSGTDFTLTISSLQPEDFATYYCQQYHSYPPTFGGGTKVEIK | 0.000366 s⁻¹ | 0.00534 s⁻¹ |
| suPAR_DB03_C03 (scFv, V domains shown, screened as scFv) VH: QVQLVQSGAEVKKPGASVKVSCKASGYTFTGYYMHWVRQAPGQGLEWMGWIDHENGSTSYDQKFQGRVTMTRDTSTSTVYMELSSLRSEDTAVYYCASGYDVDWFVYWGQGTLVTVSS VL: DIQMTQSPSSLSASVGDRVTITCSARSSVSYMYWYQQKPGKAPKLLIYGASNLQSGVPSRFSGSGSGTDFTLTISSLQPEDFATYYCQQYHSYPPTFGGGTKVEIK | 0.00108 s⁻¹ | 0.00464 s⁻¹ |
| suPAR_DB03_C04 (scFv, V domains shown, screened as scFv) VH: QVQLVQSGAEVKKPGASVKVSCKASGFNIKDYYIHWVRQAPGQGLEWMGWIDPENGSTIYDQKFQGRVTMTRDTSTSTVYMELSSLRSEDTAVYYCARGYDVDWFVYWGQGTLVTVSS VL: DIQMTQSPSSLSASVGDRVTITCSASSSISYMYWYQQKPGKAPKLLIYRTSSLASGVPSRFSGSGSGTDFTLTISSLQPEDFATYYCQQYHSYPPTFGGGTKVEIK | 4.37e-07 s⁻¹ | 0.00301 s⁻¹ |
| suPAR_DB03_C06 (scFv, V domains shown, screened as scFv) VH: QVQLVQSGAEVKKPGASVKVSCKASGYTFTDYYVHWVRQAPGQGLEWMGWIDHEGGSTSYDQKFQGRVTMTRDTSTSTVYMELSSLRSEDTAVYYCARGYDVDWFVYWGQGTLVTVSS VL: DIQMTQSPSSLSASVGDRVTITCSASSSVSYMYWYQQKPGKAPKLLIYRTSNLASGVPSRFSGSGSGTDFTLTISSLQPEDFATYYCQQYHSYPPTFGGGTKVEIK | 0.000189 s⁻¹ | 0.00318 s⁻¹ |
| suPAR_DB03_C07 (scFv, V domains shown, screened as scFv) VH: QVQLVQSGAEVKKPGASVKVSCKASGYTFTNYYVHWVRQAPGQGLEWMGWIDHENGSTIYDQKFQGRVTMTRDTSTSTVYMELSSLRSEDTAVYYCARGYDVDWFVYWGQGTLVTVSS VL: DIQMTQSPSSLSASVGDRVTITCSARSSVSYMYWYQQKPGKAPKLLIYRTSNLASGVPSRFSGSGSGTDFTLTISSLQPEDFATYYCQQYHSYPPTFGGGTKVEIK | 5.78e-05 s⁻¹ | 0.00166 s⁻¹ |
| suPAR_DB03_C08 (scFv, V domains shown, screened as scFv) VH: QVQLVQSGAEVKKPGASVKVSCKASGGTFTNYYMHWVRQAPGQGLEWMGWIDHENGSTIYAQKFQGRVTMTRDTSTSTVYMELSSLRSEDTAVYYCARGYDVDWFVYWGQGTLVTVSS VL: DIQMTQSPSSLSASVGDRVTITCSARSSVSYMYWYQQKPGKAPKLLIYRTSSLASGVPSRFSGSGSGTDFTLTISSLQPEDFATYYCQQYHSYPPTFGGGTKVEIK | 9.98e-05 s⁻¹ | 0.00103 s⁻¹ |

— patent US20250215104A1 (WALDEN BIOSCIENCES, published 2025)
